Experimental data as given in patent publication US20260035456A1 (SHANGHAI JEYOU PHARMACEUTICAL, published 2026).
Changes are numbered by the printed parent chain.

T1: biotin-labeled mouse ADM (mouse, not fully specified; biotin label (named mouse ADM-C-biotin in Example 1.4; position of the biotin not stated for the other lots))
T1 construct: Synthetic peptide; also called mouse ADM-C-biotin; mADM-Biotin
T1 peptide: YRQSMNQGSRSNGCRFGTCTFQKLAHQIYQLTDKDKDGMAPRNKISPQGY

T2: biotin-labeled human ADM (human, not fully specified; biotin label (named human ADM-C-biotin in Example 1.4; position of the biotin not stated for the other lots))
T2 construct: Synthetic peptide; also called human ADM-C-biotin; hADM-Biotin
T2 peptide: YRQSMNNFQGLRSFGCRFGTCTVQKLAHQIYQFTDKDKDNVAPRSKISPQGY

B1: Enibarcimab (antibody, V domains shown)
VH: QVQLVQSGAEVKKPGSSVKVSCKASGYTFSRYWIEWVRQAPGQGLEWIGEILPGSGSTNYNQKFQGRVTITADTSTSTAYMELSSLRSEDTAVYYCTEGYEYDGFDYWGQGTTVTVSS
VL: DVVLTQSPLSLPVTLGQPASISCRSSQSIVYSNGNTYLEWYLQRPGQSPRLLIYRVSNRFSGVPDRFSGSGSGTDFTLKISRVEAEDVGVYYCFQGSHIPYTFGGGTKLEIKR
B2: Ab2004.Am36 (IgG1 antibody) (antibody, V domains shown)
VH: QVQLVQSGAEVKKPGASVKVSCKASGYTFTQYGIAWVRQAPGQGLEWMGWISAYQGNTNYAQKLQGRVTMTRDTSTSTAYMELRSLRSDDTAVYYCAREGRWGGSFNIWGQGTMVTVSS
VL: DIQMTQSPSSLSASVGDRVTITCRASQGISSYLAWYQQKPGKAPKLLIYDASNVDTGVPSRFSGSGSGTDFTFTISSLQPEDIATYYCQQYDNLPLTFGGGTKVEIKR
notes: Expressed in CHO cells, human IgG1/kappa
B3: Ab2004.Am35 (IgG1 antibody) (antibody, V domains shown)
VH: B2 VH
VL: B2 VL with A51V, N53I, V54L, T56A
notes: as for B2
B4: fully human antibody Ab2004.Am01 (expressed antibody) (antibody, V domains shown)
VH: B2 VH with Q31S, A35S
VL: DIQMTQSPSSLSASVGDRVTITCRASQGISSYLAWYQQKPGKAPKLLIYDASNLETGVPSRFSGSGSGTDFTFTISSLQPEDIATYYCQQYDNLPLTFGGGTKVEIK
notes: also called parent antibody Ab2004.Am01
B5: Ab2004.Am32 (IgG1 antibody) (antibody, V domains shown)
VH: B2 VH
VL: B2 VL with S26A, Q27E, S30G, V54L, D55E
notes: as for B2
B6: Ab2004.Am34 (IgG1 antibody) (antibody, V domains shown)
VH: B2 VH with Q31H
VL: B2 VL with A51V, N53I, V54L, T56A
notes: as for B2
B7: Ab2004.Am37 (IgG1 antibody) (antibody, V domains shown)
VH: B2 VH with Q31S, A35S, A53P, Q55T, N57K
VL: B2 VL with A51V, N53I, V54L, T56A
notes: as for B2
B8: Ab2004.Am39 (IgG1 antibody) (antibody, V domains shown)
VH: B2 VH with Q31H
VL: B2 VL with V54L, D55E, N93D, P95D
notes: as for B2
B9: Ab2004.Am38 (IgG1 antibody) (antibody, V domains shown)
VH: B2 VH with Q31S, A35S, A53P, Q55T, N57K
VL: B2 VL with A51T, N53D, V54L
notes: as for B2
B10: Ab2004.Am40 (IgG1 antibody) (antibody, V domains shown)
VH: B2 VH
VL: B2 VL with V54L, D55E, N93D, T97S
notes: as for B2
B11: Ab2004.Am31 (IgG1 antibody) (antibody, V domains shown)
VH: B2 VH
VL: B2 VL with Q27E, S31E, V54L, D55E
notes: as for B2
B12: Ab2004.Am33 (IgG1 antibody) (antibody, V domains shown)
VH: B2 VH with Q31S, A35S, A53P, Q55S
VL: B2 VL with Q27E, S31E, V54L, D55E
notes: as for B2
B13: humanized antibody 2004hz97 (antibody, human IgG1, kappa)
heavy: not shown
light: DVVMTQSPLSLPVTLGQPASISCRSSQSIIDSDGNTYLEWYQQRPGQSPRLLIYKVSNRFSGVPDRFSGSGSGTDFTLKISRVEAEDFGVYYCFQGSHFPYTFGQGTKLEIKRTVAAPSVFIFPPSDEQLKSGTASVVCLLNNFYPREAKVQWKVDNALQSGNSQESVTEQDSKDSTYSLSSTLTLSKADYEKHKVYACEVTHQGLSSPVTKSFNRGEC
notes: Human IgG1/kappa
B14: humanized antibody 2004hz99 (antibody, human IgG1, kappa)
heavy: not shown
light: B13 light with V3L, G104A
notes: Human IgG1/kappa
B15: chimeric antibody 2004hz00 (antibody, human IgG1, kappa)
heavy: not shown
light: DVLMTQTPFSLPVSLGDQASISCRSSQSIIDSDGNTYLEWYLQKPGQSPKLLIYKVSNRFSGVPDRFSGSGSGTDFTLRISRVEAEDLGVYYCFQGSHFPYTFAGGTKLELKRTVAAPSVFIFPPSDEQLKSGTASVVCLLNNFYPREAKVQWKVDNALQSGNSQESVTEQDSKDSTYSLSSTLTLSKADYEKHKVYACEVTHQGLSSPVTKSFNRGEC
notes: Human IgG1/kappa

Molecular target: T1, biotin-labeled mouse ADM
Assay: BLI (Octet RED96e), as in Example 3
Description: (§1) The affinity of antibodies 2004hz00, 2004hz97, and 2004hz99 for biotin-labeled human and mouse ADM (human ADM Cat. No. 894757, mouse ADM Cat. No. 894758, synthesized by GLBiochem) was determined by adopting Octet RED96e (Fortebio). The antigens and the antibodies were all diluted with 1× PBST (1× PBS: Sangon, B548117-0500; 0.02% Tween 20: sigma, P1379), the concentration of the antibody used was 100 nM, and the concentration of the antigen used was 2 μg/mL. The candidate antibody sample was added to a 96-well plate (Greiner bio-one, 655209) at 200 μL/well, the software parameters were set, the temperature was 30° C., and the standard kinetic signal was collected at a frequency of 5.0 Hz; and an SA sensor (Fortebio, Cat. No. 18-5020) was pre-wetted with 1× PBST for 10 min and then tested on a machine.
(§2) The equilibrium dissociation constants (KD) of the antibodies were calculated by measuring the association rates (Kon) and the dissociation rates (Koff) of the antigen-antibody in a 1:1 binding manner by adopting the Data Analysis 12.0 software from Fortebio.
(§3) Similar to Example 3, the affinity of the affinity-matured antibodies Ab2004.Am31 -Ab2004.Am40 and the parent antibody Ab2004.Am01 for human and mouse ADM was further determined, respectively, and the results are shown in Table 10. It can be seen from Table 10 […].

Binder	Kd	Response value	koff	kon
B1	0.497 nM	2.75	0.000297 s⁻¹	597000 M⁻¹ s⁻¹
B2	0.518 nM	2.75	0.000221 s⁻¹	427000 M⁻¹ s⁻¹
B3	0.452 nM	2.74	0.000206 s⁻¹	456000 M⁻¹ s⁻¹
B4	2.21 nM	2.35	0.000956 s⁻¹	434000 M⁻¹ s⁻¹
B5	0.474 nM	2.76	0.000219 s⁻¹	461000 M⁻¹ s⁻¹
B6	0.451 nM	2.78	0.000222 s⁻¹	492000 M⁻¹ s⁻¹
B7	0.469 nM	2.85	0.00033 s⁻¹	703000 M⁻¹ s⁻¹
B8	0.489 nM	2.7	0.000266 s⁻¹	543000 M⁻¹ s⁻¹
B9	0.467 nM	2.88	0.000342 s⁻¹	733000 M⁻¹ s⁻¹
B10	0.492 nM	2.65	0.000253 s⁻¹	513000 M⁻¹ s⁻¹
B11	0.412 nM	2.81	0.000221 s⁻¹	537000 M⁻¹ s⁻¹
B12	0.474 nM	2.8	0.000365 s⁻¹	769000 M⁻¹ s⁻¹

Molecular target: T2, biotin-labeled human ADM
Assay: BLI (Octet RED96e), as in Example 3
Description: as §1, §2, §3

Binder	Kd	Response value	koff	kon
B1	0.567 nM	2.07	0.000382 s⁻¹	673000 M⁻¹ s⁻¹
B2	0.291 nM	2.7	0.000108 s⁻¹	372000 M⁻¹ s⁻¹
B3	0.281 nM	1.96	0.000119 s⁻¹	423000 M⁻¹ s⁻¹
B4	0.766 nM	2.34	0.000233 s⁻¹	305000 M⁻¹ s⁻¹
B5	0.34 nM	2.53	0.000146 s⁻¹	430000 M⁻¹ s⁻¹
B6	0.154 nM	2.61	6.81e-05 s⁻¹	444000 M⁻¹ s⁻¹
B7	0.256 nM	2.88	0.00015 s⁻¹	587000 M⁻¹ s⁻¹
B8	0.178 nM	2.57	8.33e-05 s⁻¹	468000 M⁻¹ s⁻¹
B9	0.255 nM	2.83	0.00016 s⁻¹	626000 M⁻¹ s⁻¹
B10	0.352 nM	2.66	0.000158 s⁻¹	449000 M⁻¹ s⁻¹
B11	0.288 nM	2.64	0.000141 s⁻¹	491000 M⁻¹ s⁻¹
B12	0.316 nM	2.63	0.000214 s⁻¹	676000 M⁻¹ s⁻¹

Molecular target: T1, biotin-labeled mouse ADM
Assay: BLI (Octet RED96e), biotinylated antigen on SA sensor, antibody 100 nM, 1:1 fit
Description: as §1, §2

Binder	Kd	Response value	koff	kon
B13	0.489 nM	3	0.000231 s⁻¹	472000 M⁻¹ s⁻¹
B14	0.418 nM	3.06	0.000194 s⁻¹	465000 M⁻¹ s⁻¹
B15	0.454 nM	3.19	0.000196 s⁻¹	432000 M⁻¹ s⁻¹

Molecular target: T2, biotin-labeled human ADM
Assay: as above
Description: as §1, §2

Binder	Kd	Response value	koff	kon
B13	0.546 nM	2.39	0.000252 s⁻¹	461000 M⁻¹ s⁻¹
B14	0.429 nM	2.58	0.000201 s⁻¹	468000 M⁻¹ s⁻¹
B15	0.457 nM	2.69	0.000201 s⁻¹	441000 M⁻¹ s⁻¹
